Assay results as given in patent US20260176319A1 (KALLYOPE, published 2026).
Starred links: 1 amine or outer side, 2 acyl side, 3 side chain; linkers in the order of their positions; H or OH if unused. Non-standard residues stand in square brackets, D forms with d. *: point of attachment. Trp(7-Me) = Cc1cccc2c(C[C@H](N)C(=O)O)c[nH]c12; C18 diacid = O=C(O)CCCCCCCCCCCCCCCCC(=O)*; γGlu = O=C(O)[C@H](CCC(=O)[*:2])N[*:1]; Nle = CCCC[C@H](N)C(=O)O; AEEA = NCCOCCOCC(=O)O; Sar = CNCC(=O)O

B1: Peptide 116 (peptide)
peptide: {C18 diacid}-[γGlu][AEEA][AEEA]GRHHAV[dA]HL[Nle]-NH2
SMILES: CCCC[C@H](NC(=O)[C@H](CC(C)C)NC(=O)[C@H](Cc1c[nH]cn1)NC(=O)[C@@H](C)NC(=O)[C@@H](NC(=O)[C@H](C)NC(=O)[C@H](Cc1c[nH]cn1)NC(=O)[C@H](Cc1c[nH]cn1)NC(=O)[C@H](CCCNC(=N)N)NC(=O)CNC(=O)COCCOCCNC(=O)COCCOCCNC(=O)CC[C@H](NC(=O)CCCCCCCCCCCCCCCCC(=O)O)C(=O)O)C(C)C)C(N)=O
B2: Peptide 117 (peptide)
peptide: {C18 diacid}-[γGlu][AEEA][AEEA][AEEA][AEEA]GRH[Trp(7-Me)]AV[dA]HL[Nle]-NH2
SMILES: CCCC[C@H](NC(=O)[C@H](CC(C)C)NC(=O)[C@H](Cc1c[nH]cn1)NC(=O)[C@@H](C)NC(=O)[C@@H](NC(=O)[C@H](C)NC(=O)[C@H](Cc1c[nH]c2c(C)cccc12)NC(=O)[C@H](Cc1c[nH]cn1)NC(=O)[C@H](CCCNC(=N)N)NC(=O)CNC(=O)COCCOCCNC(=O)COCCOCCNC(=O)COCCOCCNC(=O)COCCOCCNC(=O)CC[C@H](NC(=O)CCCCCCCCCCCCCCCCC(=O)O)C(=O)O)C(C)C)C(N)=O
B3: Peptide 114 (peptide)
peptide: {C18 diacid}-[γGlu][AEEA][AEEA]GNHWAV[dA]HL[Nle]R-NH2
SMILES: CCCC[C@H](NC(=O)[C@H](CC(C)C)NC(=O)[C@H](Cc1c[nH]cn1)NC(=O)[C@@H](C)NC(=O)[C@@H](NC(=O)[C@H](C)NC(=O)[C@H](Cc1c[nH]c2ccccc12)NC(=O)[C@H](Cc1c[nH]cn1)NC(=O)[C@H](CC(N)=O)NC(=O)CNC(=O)COCCOCCNC(=O)COCCOCCNC(=O)CC[C@H](NC(=O)CCCCCCCCCCCCCCCCC(=O)O)C(=O)O)C(C)C)C(=O)N[C@@H](CCCNC(=N)N)C(N)=O
B4: Peptide 115 (peptide)
peptide: {C18 diacid}-[γGlu][AEEA][AEEA]GNHW[dA]V[dA]HL[Nle][Sar]-NH2
SMILES: CCCC[C@H](NC(=O)[C@H](CC(C)C)NC(=O)[C@H](Cc1c[nH]cn1)NC(=O)[C@@H](C)NC(=O)[C@@H](NC(=O)[C@@H](C)NC(=O)[C@H](Cc1c[nH]c2ccccc12)NC(=O)[C@H](Cc1c[nH]cn1)NC(=O)[C@H](CC(N)=O)NC(=O)CNC(=O)COCCOCCNC(=O)COCCOCCNC(=O)CC[C@H](NC(=O)CCCCCCCCCCCCCCCCC(=O)O)C(=O)O)C(C)C)C(=O)N(C)CC(N)=O
B5: Peptide 118 (peptide)
peptide: {C18 diacid}-[γGlu][AEEA][AEEA][AEEA][AEEA]GRHWAV[dA]HL[Nle]-NH2
SMILES: CCCC[C@H](NC(=O)[C@H](CC(C)C)NC(=O)[C@H](Cc1c[nH]cn1)NC(=O)[C@@H](C)NC(=O)[C@@H](NC(=O)[C@H](C)NC(=O)[C@H](Cc1c[nH]c2ccccc12)NC(=O)[C@H](Cc1c[nH]cn1)NC(=O)[C@H](CCCNC(=N)N)NC(=O)CNC(=O)COCCOCCNC(=O)COCCOCCNC(=O)COCCOCCNC(=O)COCCOCCNC(=O)CC[C@H](NC(=O)CCCCCCCCCCCCCCCCC(=O)O)C(=O)O)C(C)C)C(N)=O

These binders were tested against human GRP receptor (human, UniProt P30550 1-384) (assay: cell-based or functional assay).
Chain of human GRP receptor (P30550 whole entry): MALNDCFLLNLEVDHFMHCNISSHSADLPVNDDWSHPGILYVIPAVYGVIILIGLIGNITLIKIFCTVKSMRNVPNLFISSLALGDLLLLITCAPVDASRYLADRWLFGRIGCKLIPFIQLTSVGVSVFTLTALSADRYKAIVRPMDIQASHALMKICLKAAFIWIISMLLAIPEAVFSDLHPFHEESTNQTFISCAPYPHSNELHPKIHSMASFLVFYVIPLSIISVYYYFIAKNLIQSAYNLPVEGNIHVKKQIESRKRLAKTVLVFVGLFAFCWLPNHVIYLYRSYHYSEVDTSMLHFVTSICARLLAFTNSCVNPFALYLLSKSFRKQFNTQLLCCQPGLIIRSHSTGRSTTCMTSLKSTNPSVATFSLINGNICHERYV

Row | Binder | hIP1 GRPR EC50
1 | B1 | > 10000 nM
2 | B2 | 16.5 nM
3 | B3 | > 10000 nM
4 | B4 | > 10000 nM
5 | B5 | 8.02 nM
